These results are taken from patent publication US20230095004 (Aptitude Medical Systems, Inc., published 2023).

Positions count from the first letter of the chain named.

Data set [1] addresses T1, VEGF-165 (VEGF-A) (Homo sapiens).
T1 chain: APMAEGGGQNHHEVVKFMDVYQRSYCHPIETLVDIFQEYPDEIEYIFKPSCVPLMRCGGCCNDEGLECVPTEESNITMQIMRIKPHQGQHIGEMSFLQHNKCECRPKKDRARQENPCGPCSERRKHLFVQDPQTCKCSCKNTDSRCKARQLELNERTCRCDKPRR
Put plainly: competition; VEGFR2 blocking ELISA, PBSMCT, 37 C. As to conditions: tags: R&D Systems 293-VE-050; chain copies: 2.

Data set [2] deals with T1, VEGF-165 (VEGF-A). In words: flow; PBSMCT, 37 C. As to conditions: tags: recombinant; chain copies: 2; label: biotin.
Data set [3] addresses T2, VEGF-121 (VEGF-A) (Homo sapiens, UniProt P15692 SEQ:1-121). In words: flow; bead-bound aptamer; PBSMCT 2.5 mM MgCl2 1 mM CaCl2, 37 C. Particulars: tags: recombinant; chain copies: 2; label: biotin.
The target in data set [4] is T1, VEGF-165 (VEGF-A). In words: competition; VEGF/VEGFR2 inhibition. Particulars: tags: R&D Systems 293-VE-050; chain copies: 2.
The target in data set [5] is T2, VEGF-121 (VEGF-A). In words: flow; PBSMCT, 37 C. As to conditions: tags: recombinant; chain copies: 2; label: biotin.
Data set [6] addresses T1, VEGF-165 (VEGF-A). Put plainly: competition; VEGFR2 competition ELISA, 50 pM VEGF-165, 37 C. As to conditions: tags: recombinant, chain copies: 2.

With UGCCAGUGAGUCGGAUCUCCGCAUAUCUGCGCGCAUAUCUGCG (ssRNA, 2'-F all) [AMS0433.2], the IC50 in the data set with VEGF-165 (VEGF-A) [1] amounted to 9.26 nM.
As for ACCCUUGCUUGCGUAGCAUUUUACCAGUGAGUCGGAUCUC (ssRNA, 2'-F all nucleotides), the dissociation constant Kd with VEGF-165 (VEGF-A) [2] worked out at 11.1 nM; in the data set with VEGF-121 (VEGF-A) [3], 15.2 nM.
Take ACCCUUGCUUGCGUAGCAUUUUACCAGUGAGUCGGAUCUC (ssRNA, 2'-F all): the IC50 in the data set with VEGF-165 (VEGF-A) [1] was determined as 27.5 nM.
Same read-out and setting: next, UGCCAGUGAGUCGGAUCUCCUGUGAGAACACAG (ssRNA, 2'-F all) [AMS0433.10]: 27.2 nM.

B1: AMSB107.5 (ssRNA)
RNA: AUGCAUGCAUUUUUACCAGUGAGUCGGAUCUCCGCAUAGAUAAGCCAACAAACGUACAUUCUCUGUUAGUAUUUUCUGCG
modifications: 2'-F all
In the data set with VEGF-165 (VEGF-A) [4], B1 gave an IC50 of 0.081 nM.

B2: AMSB107.17 (ssRNA)
RNA: B1 RNA with A1G, U2C, G3U, C4G, A5U, U6A, G7C, C8A, A9G, U10C
modifications: 2'-F all
B2 showed an IC50 in the data set with VEGF-165 (VEGF-A) [4] of 0.083 nM.

B3: AMSB107.10 (ssRNA)
RNA: B1 RNA with A1U, U2G, G3C, C4A, A5U, U6G, G7C, C8A, A9U
modifications: 2'-F all
The molecule B3 showed an IC50 with VEGF-165 (VEGF-A) [4] of 0.17 nM.

B4: AMSB107.13 (ssRNA)
RNA: B1 RNA with A1C, U2C, C4G, A5U, U6A, G7C, A9G, U10G
modifications: 2'-F all
In turn, B4 came in with an IC50 in the data set with VEGF-165 (VEGF-A) [4] of 1 nM.

B5: AMSB107.15 (ssRNA)
RNA: B1 RNA with A1U, U2G, G3C, C4A, A5U, U6C, G7U, C8G, A9C, U10A
modifications: 2'-F all
In the data set with VEGF-165 (VEGF-A) [4], B5 gave an IC50 of 15.6 nM.
For the molecule CGUAGCAUUUUGCCAGUGAGUCGGAUCUCCGCAUAUCUGCG (ssRNA, 2'-F all) [AMS0433.8], the IC50 in the data set with VEGF-165 (VEGF-A) [1] is 42.9 nM.
Same read-out and setting: under ACCCUUGCUUGCGUAGCAUUUUACCAGUGAGUCGGAUCUCUGCAUGCA (ssRNA, 2'-F all) [AMS0433.15] stands 2.17 nM; under CCCCAUCUGCGAAGCAGUCAGCCAGUGAGUCGGAUCUCCGCAUAUCUGCG (ssRNA, 2'-F all) [AMS0433.6], 3.49 nM; under CUGUACAGUUUUACCAGUGAGUCGGAUCUCCGCAUAUCUGCG (ssRNA, 2'-F all) [AMS0433.19], 0.056 nM.
The same measure, in the same setting: next, UUUUACCAGUGAGUCGGAUCUCUGCAUGCA (ssRNA, 2'-F all) [AMS0433.16]: 1.2 nM.

B6: AMSB107.14 (ssRNA)
RNA: UGCACUGCAUUUUACCAGUGAGUCGGAUCUCCGCAUAGAUAAGCCAACAAACGUACAUUCUCUGUUAGUAUUUUCUGCG
modifications: 2'-F all
B6 displayed an IC50 with VEGF-165 (VEGF-A) [4] of 3.27 nM.

B7: AMSB107.11 (ssRNA)
RNA: UGCAUGCAUUUUCCAGUGAGUCGGAUCUCCGCAUAGAUAAGCCAACAAACGUACAUUCUCUGUUAGUAUUUUCUGCG
modifications: 2'-F all
In turn, B7 returned an IC50 in the data set with VEGF-165 (VEGF-A) [4] of 0.114 nM.
In the data set with VEGF-165 (VEGF-A) [1], CACAGAGAACUGUGUGCCAGUGAGUCGGAUCUCCGCAUAUCUGCG (ssRNA, 2'-F all) [AMS0433.7] returned an IC50 of 8.23 nM.

B8: AMSB107.12 (ssRNA)
RNA: CUGUACAGUUUUACCAGUGAGUCGGAUCUCCGCAUAGAUAAGCCAACAAACGUACAUUCUCUGUUAGUAUUUUCUGCG
modifications: 2'-F all
Regarding B8, in the data set with VEGF-165 (VEGF-A) [4], the IC50 was found to be 1.03 nM.

B9: AMSB107.18 (ssRNA)
RNA: B8 RNA with C1U, U2G, G3C, U4A, A5U, C6G, A7C, G8A
modifications: 2'-F with LNA (L) at positions as printed
B9 came in with an IC50 with VEGF-165 (VEGF-A) [4] of 0.422 nM.

B10: AMSB107.20 (ssRNA)
RNA: B8 RNA with C1U, U2G, G3C, U4A, A5U, C6G, A7C, G8A
modifications: 2'-F with LNA (L) in stems as printed
For the molecule B10, the IC50 with VEGF-165 (VEGF-A) [4] stood at 0.068 nM.

B11: AMSB107.21 (ssRNA)
RNA: B8 RNA with C1U, U2G, G3C, U4A, A5U, C6G, A7C, G8A
modifications: 2'-F with 2'-OMe in stems as printed
On to B11, for which the IC50 with VEGF-165 (VEGF-A) [4] was 0.063 nM.

B12: AMSB107.8 (ssRNA)
RNA: UUUUGCAUGCAUUUUACCAGUGAGUCGGAUCUCCGCAUAGAUAAGCCAACAAACGUACAUUCUCUGUUAGUAUUUUCUGCG
modifications: 2'-F all
B12 had an IC50 with VEGF-165 (VEGF-A) [4] of 0.255 nM.
With GCUGUACAGCUUUUACCAGUGAGUCGGAUCUCCGCAUAUCUGCG (ssRNA, 2'-F all nucleotides), the dissociation constant (Kd) in the data set with VEGF-121 (VEGF-A) [5] came to 0.15 nM; in the data set with VEGF-165 (VEGF-A) [2] it was 0.131 nM.
For GCUGUACAGCUUUUACCAGUGAGUCGGAUCUCCGCAUAUCUGCG (ssRNA, 2'-F all), the IC50 with VEGF-165 (VEGF-A) [1] was 0.064 nM.
As to UGCAUGCAUUUUACCAGUGAGUCGGAUCUCCGCAUAUCUGCG (ssRNA, 2'-F all nucleotides) [AMS0433], the results for the equilibrium dissociation constant (Kd) with VEGF-121 (VEGF-A) [5] and in the data set with VEGF-165 (VEGF-A) [2] were 0.052 nM and 0.041 nM, respectively. Moreover, in the data set with VEGF-165 (VEGF-A) [6] (label: biotin), the IC50 worked out at 0.037 nM.

B13: AMS0433.m6 (ssRNA)
RNA: UGCAUGCAUUUUACCAGUGAGUCGGAUCUCCGCAUAUCUGCG
modifications: mixed 2'-F and 2'-OMe: mUmGmCmAmUmGmCmAmUmUmUmUmAmCfCfAfGfUfGfAfGfUmCfGfGfAmUfCfUfCfCfGfCfAfUfAfUfCfUfGfCfG
Take B13: in the data set with VEGF-165 (VEGF-A) [6], the IC50 worked out at 0.041 nM.

B14: AMS0433.m4 (ssRNA)
RNA: B13 RNA
modifications: mixed 2'-F and 2'-OMe: fUfGfCfAfUfGfCfAmUmUmUmUmAmCfCfAfGfUfGfAfGfUmCfGfGfAmUfCfUfCmCmGmCmAmUmAmUmCmUmGmCmG
For the molecule B14, in the data set with VEGF-165 (VEGF-A) [6], the IC50 was 0.04 nM.

B15: AMS0433.5 (ssRNA)
RNA: CACCAUGCUUGCGUAGCAUCAUCCAGUGAGUCGGAUCUCCGCAUAUCUGCG
modifications: 2'-F all
Turning to B15, the IC50 in the data set with VEGF-165 (VEGF-A) [1] turned out to be 2.5 nM.

B16: AMS0433.13 (ssRNA)
RNA: UUUUGUGCUUGCGUAGCAACCCUCCAGUGAGUCGGAUCUCCGCAUAUCUGCG
modifications: 2'-F all
In turn, B16 yielded an IC50 in the data set with VEGF-165 (VEGF-A) [1] of 12.3 nM.
Turning to UUUUGCAUGCAUUUUACCAGUGAGUCGGAUCUCCGCAUAUCUGCG (ssRNA, 2'-F all) [AMS0433.20], the IC50 in the data set with VEGF-165 (VEGF-A) [1] is 0.044 nM.

B17: AMS0433.3 (ssRNA)
RNA: ACCCUUGCUUGCGUAGCAUUCUGCCAGUGAGUCGGAUCUCCGCAUAUCUGCG
modifications: 2'-F all nucleotides
Take B17: the Kd in the data set with VEGF-121 (VEGF-A) [5] amounted to 0.921 nM; with VEGF-165 (VEGF-A) [2], 0.837 nM.

B18: AMS0433.1 (ssRNA)
RNA: B17 RNA with C21U, G23A
modifications: 2'-F all
For B18, the IC50 with VEGF-165 (VEGF-A) [1] came out at 1.73 nM.

B19: AMS0433.3 (ssRNA)
RNA: B17 RNA
modifications: 2'-F all
B19 came in with an IC50 with VEGF-165 (VEGF-A) [1] of 2.1 nM.

B20: AMS0433.4 (ssRNA)
RNA: B17 RNA with U14C
modifications: 2'-F all nucleotides
For the molecule B20, the values for the dissociation constant Kd with VEGF-121 (VEGF-A) [5] and in the data set with VEGF-165 (VEGF-A) [2] were 1.09 nM and 0.76 nM, respectively.

B21: AMS0433.4 (ssRNA)
RNA: B17 RNA with U14C
modifications: 2'-F all
As for B21, the IC50 with VEGF-165 (VEGF-A) [1] is 1.96 nM.

B22: AMS0433.11 (ssRNA)
RNA: CACAGAGAACUGUGCCUAGCAUUUUGCCAGUGAGUCGGAUCUCCGCAUAUCUGCG
modifications: 2'-F all
For the molecule B22, the IC50 in the data set with VEGF-165 (VEGF-A) [1] stood at 29.5 nM.

B23: AMSB107.2 (ssRNA)
RNA: UGCCAGUGAGUCGGAUCUCCACAGUAGAUAAGCCAACAAACGUACAUUCUCUGUUAGUAUUUUCCUGUG
modifications: 2'-F all
For the molecule B23, the IC50 with VEGF-165 (VEGF-A) [4] came to 19.4 nM.
Molecule UGCAUCUGCAUUUUACCAGUGAGUCGGAUCUCCGCAUAUCUGCG (ssRNA, 2'-F all) [AMS0433.18] had an IC50 with VEGF-165 (VEGF-A) [1] of 8.34 nM.

B24: AMSB107.1 (ssRNA)
RNA: UGCCAGUGAGUCGGAUCUCCGCAUAGAUAAGCCAACAAACGUACAUUCUCUGUUAGUAUUUUCUGCG
modifications: 2'-F all
In turn, B24 gave an IC50 in the data set with VEGF-165 (VEGF-A) [4] of 21.5 nM.

B25: AMSB107.4 (ssRNA)
RNA: GCAUGCUUUUACCAGUGAGUCGGAUCUCCGCAUAGAUAAGCCAACAAACGUACAUUCUCUGUUAGUAUUUUCUGCG
modifications: 2'-F all
Molecule B25 gave an IC50 with VEGF-165 (VEGF-A) [4] of 0.081 nM.

B26: AMSB107.9 (ssRNA)
RNA: B25 RNA with G1U, C2G, A3C, U4A, G5U, C6G, U7C, U8A
modifications: 2'-F all
B26 had a half-maximal inhibitory concentration (IC50) in the data set with VEGF-165 (VEGF-A) [4] of 0.147 nM.
UGCACUGCAUUUUACCAGUGAGUCGGAUCUCCGCAUAUCUGCG (ssRNA, 2'-F all) [AMS0433.17]: the IC50 with VEGF-165 (VEGF-A) [1] amounted to 0.983 nM.

B27: AMSB107.6 (ssRNA)
RNA: UGCAUGCAACCAGUGAGUCGGAUCUCCGCAUAGAUAAGCCAACAAACGUACAUUCUCUGUUAGUAUUUUCUGCG
modifications: 2'-F all
With B27, the IC50 in the data set with VEGF-165 (VEGF-A) [4] turned out to be 0.551 nM.
